In patent US12338277:

Legend:
Experiment in all cases: cell-based or functional assay
[1] = biological target: HIV-1 envelope of pseudovirus CNE21 (HIV-1)
[2] = biological target: HIV-1 envelope of pseudovirus Q23.17 (HIV-1)
[3] = biological target: HIV-1 Env of pseudovirus X1632_S2_B10 (HIV-1)
[4] = biological target: HIV-1 envelope of pseudovirus RHPA4259.7 (HIV-1)
[5] = biological target: HIV-1 envelope of pseudovirus Ce703010054_2A2 (HIV-1)
[6] = biological target: HIV-1 Env of pseudovirus Ce2060_G9 (HIV-1)
[7] = biological target: HIV-1 envelope of pseudovirus WEAU_d15_410_787 (HIV-1)
[8] = biological target: HIV-1 envelope of pseudovirus 6240_08_TA5_4622 (HIV-1)
[9] = biological target: HIV-1 envelope of pseudovirus C4118.c09 (HIV-1)
[10] = biological target: HIV-1 Env of pseudovirus Ce2010_F5 (HIV-1)
[11] = biological target: HIV-1 envelope of pseudovirus ZM249M.PL1 (HIV-1)
[12] = biological target: HIV-1 envelope of pseudovirus Ce704809221_1B3 (HIV-1)
[13] = biological target: HIV-1 envelope of pseudovirus 6041.v3.c23 (HIV-1)
[14] = biological target: HIV-1 Env of pseudovirus 620345.c01 (HIV-1)
[15] = biological target: HIV-1 envelope of pseudovirus T255-34 (HIV-1)
[16] = biological target: HIV-1 Env of pseudovirus MS208.A1 (HIV-1)
[17] = biological target: HIV-1 envelope of pseudovirus A07412M1.vrc12 (HIV-1)
[18] = biological target: HIV-1 envelope of pseudovirus CNE52 (HIV-1)
[19] = biological target: HIV-1 envelope of pseudovirus 6540.v4.c1 (HIV-1)
[20] = biological target: HIV-1 envelope of pseudovirus 6811.v7.c18 (HIV-1)
[21] = biological target: HIV-1 envelope of pseudovirus X1254_c3 (HIV-1)
[22] = biological target: HIV-1 envelope of pseudovirus CAP210.2.00.E8 (HIV-1)
[23] = biological target: HIV-1 envelope of pseudovirus C1080.c03 (HIV-1)
[24] = biological target: HIV-1 Env of pseudovirus 62357_14_03_4589 (HIV-1)
[25] = biological target: HIV-1 Env of pseudovirus 6540.v4.c1 (HIV-1)
[26] = biological target: HIV-1 Env of pseudovirus ZM249M.PL1 (HIV-1)
[27] = biological target: HIV-1 Env of pseudovirus 6811.v7.c18 (HIV-1)
[28] = biological target: HIV-1 envelope of pseudovirus Q259.d2.17 (HIV-1)
[29] = biological target: HIV-1 envelope spike of pseudovirus TRJO4551.58 (HIV-1)
[30] = biological target: HIV-1 Env of pseudovirus ZM233M.PB6 (HIV-1)
[31] = biological target: HIV-1 Env of pseudovirus 3817.v2.c59 (HIV-1)
[32] = biological target: HIV-1 Env of pseudovirus C3347.c11 (HIV-1)
[33] = biological target: HIV-1 envelope spike of pseudovirus QH0692.42 (HIV-1)
[34] = biological target: HIV-1 Env of pseudovirus ZM197M.PB7 (HIV-1)
[35] = biological target: HIV-1 Env of pseudovirus PVO.4 (HIV-1)
[36] = biological target: HIV-1 envelope of pseudovirus CNE8 (HIV-1)
[37] = biological target: HIV-1 Env of pseudovirus 231965.c01 (HIV-1)
[38] = biological target: HIV-1 envelope of pseudovirus BJOX028000.10.3 (HIV-1)
[39] = biological target: HIV-1 envelope of pseudovirus 246F C1G (HIV-1)
[40] = biological target: HIV-1 envelope spike of pseudovirus PVO.4 (HIV-1)
[41] = biological target: HIV-1 Env of pseudovirus 263-8 (HIV-1)
[42] = biological target: HIV-1 Env of pseudovirus BJOX015000.11.5 (HIV-1)
[43] = biological target: HIV-1 envelope of pseudovirus QH0692.42 (HIV-1)
[44] = biological target: HIV-1 Env of pseudovirus CNE5 (HIV-1)
[45] = biological target: HIV-1 Env of pseudovirus 191084 B7-19 (HIV-1)
[46] = biological target: HIV-1 Env of pseudovirus Q23.17 (HIV-1)
[47] = biological target: HIV-1 Env of pseudovirus CNE21 (HIV-1)
[48] = biological target: HIV-1 envelope of pseudovirus CNE58 (HIV-1)
[49] = biological target: HIV-1 envelope of pseudovirus 3365.v2.c2 (HIV-1)
[50] = biological target: HIV-1 envelope of pseudovirus 231966.c02 (HIV-1)

Chain of 10-996 (antibody) (VH): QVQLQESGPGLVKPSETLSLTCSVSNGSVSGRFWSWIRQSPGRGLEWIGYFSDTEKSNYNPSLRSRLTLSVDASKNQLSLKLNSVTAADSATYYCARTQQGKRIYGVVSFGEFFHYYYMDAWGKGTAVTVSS
Chain of 10-996 (antibody) (VL): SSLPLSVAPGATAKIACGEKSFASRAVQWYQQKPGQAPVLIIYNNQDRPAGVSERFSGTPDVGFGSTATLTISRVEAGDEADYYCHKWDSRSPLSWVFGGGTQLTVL

10-996 (antibody)
IC50 (TZM-bl neutralization) [1]: 0.086 µg/mL | IC50 (TZM-bl neutralization) [2]: 0.008 µg/mL | IC80 (TZM-bl neutralization) [3]: > 50 µg/mL | IC50 (TZM-bl neutralization) [4]: 0.034 µg/mL | IC50 (TZM-bl neutralization) [5]: > 50 µg/mL | IC80 (TZM-bl neutralization) [6]: > 50 µg/mL | IC50 (TZM-bl neutralization) [7]: 0.147 µg/mL | IC50 (TZM-bl neutralization) [8]: 0.095 µg/mL | IC50 (TZM-bl neutralization) [9]: > 50 µg/mL | IC80 (TZM-bl neutralization) [10]: > 50 µg/mL | IC50 (TZM-bl neutralization) [11]: > 50 µg/mL | IC50 (TZM-bl neutralization) [12]: 0.243 µg/mL | IC50 (TZM-bl neutralization) [13]: > 50 µg/mL | IC80 (TZM-bl neutralization) [14]: > 50 µg/mL | IC50 (TZM-bl neutralization) [15]: 28.4 µg/mL | IC80 (TZM-bl neutralization) [16]: > 50 µg/mL | IC50 (TZM-bl neutralization) [17]: 0.008 µg/mL | IC50 (TZM-bl neutralization) [18]: 4.53 µg/mL | IC50 (TZM-bl neutralization) [19]: > 50 µg/mL | IC50 (TZM-bl neutralization) [20]: 0.001 µg/mL | IC50 (TZM-bl neutralization) [21]: 0.121 µg/mL | IC50 (TZM-bl neutralization) [22]: 24.8 µg/mL | IC50 (TZM-bl neutralization) [23]: > 50 µg/mL | IC80 (TZM-bl neutralization) [24]: > 50 µg/mL | IC80 (TZM-bl neutralization) [25]: > 50 µg/mL | IC80 (TZM-bl neutralization) [26]: > 50 µg/mL | IC80 (TZM-bl neutralization) [27]: 0.011 µg/mL | IC50 (TZM-bl neutralization) [28]: > 50 µg/mL | IC50 (TZM-bl neutralization assay) [29]: 0.516 µg/mL | IC80 (TZM-bl neutralization assay) [29]: 4.26 µg/mL | IC80 (TZM-bl neutralization) [30]: 4.52 µg/mL | IC80 (TZM-bl neutralization) [31]: 34.6 µg/mL | IC80 (TZM-bl neutralization) [32]: > 50 µg/mL | IC50 (TZM-bl neutralization assay) [33]: 0.395 µg/mL | IC80 (TZM-bl neutralization assay) [33]: 1.4 µg/mL | IC80 (TZM-bl neutralization) [34]: > 50 µg/mL | IC80 (TZM-bl neutralization) [35]: 0.952 µg/mL | IC50 (TZM-bl neutralization) [36]: > 50 µg/mL | IC80 (TZM-bl neutralization) [37]: > 50 µg/mL | IC50 (TZM-bl neutralization) [38]: > 50 µg/mL | IC50 (TZM-bl neutralization) [39]: 0.092 µg/mL | IC50 (TZM-bl neutralization assay) [40]: 0.211 µg/mL | IC80 (TZM-bl neutralization assay) [40]: 1.72 µg/mL | IC80 (TZM-bl neutralization) [41]: > 50 µg/mL | IC80 (TZM-bl neutralization) [42]: > 50 µg/mL | IC50 (TZM-bl neutralization) [43]: 0.396 µg/mL | IC80 (TZM-bl neutralization) [44]: > 50 µg/mL | IC80 (TZM-bl neutralization) [45]: 0.144 µg/mL | IC80 (TZM-bl neutralization) [46]: 0.03 µg/mL | IC80 (TZM-bl neutralization) [47]: 0.255 µg/mL | IC50 (TZM-bl neutralization) [48]: 0.57 µg/mL | IC50 (TZM-bl neutralization) [49]: 0.286 µg/mL | IC50 (TZM-bl neutralization) [50]: > 50 µg/mL
